Results published in publication PMC10394066, “Polymorphic amyloid nanostructures of hormone peptides involved in glucose homeostasis display reversible amyloid formation” (Nature Communications, 2023).

Target: the molecule itself
Assay: FTIR; 6 mM peptide in water, pH adjusted from 7.2 to 4.2; amide I band 1625–1630 cm^−1; bio-ATR cell

B1: APR^ex-4 hexapeptide LFIEWL (aggregation-prone region of exendin-4) (peptide)
peptide: LFIEWL
notes: aggregation-prone hexapeptide segment of the non-mammalian exendin-4 (also of exendin-3); free termini; also called LFIEWL (exendin-4); source: synthetic peptide (flow solid-phase synthesis, Fmoc/tBu; RP-HPLC purified)
B1: binds.
